Data published in paper PMC3570234 (Molecular pharmaceutics, 2012).

Target: the molecule itself
Assay: MALDI-ToF MS

B1: Superoxide dismutase 1 (SOD1) from bovine erythrocytes (enzyme)
chain: not shown
Q: Does B1 bind?
A: binds
